First the molecules themselves.
B1: mCherry-UVR8-GFP (wild-type UV … LOCUS 8, from the pFRET-NcCg-DEST vector) [Arabidopsis thaliana] / itself (parent)
chain: MAEDMAADEVTAPPRKVLIISAGASHSVALLSGDIVCSWGRGEDGQLGHGDAEDRPSPTQLSALDGHQIVSVTCGADHTVAYSQSGMEVYSWGWGDFGRLGHGNSSDLFTPLPIKALHGIRIKQIACGDSHCLAVTMEGEVQSWGRNQNGQLGLGDTEDSLVPQKIQAFEGIRIKMVAAGAEHTAAVTEDGDLYGWGWGRYGNLGLGDRTDRLVPERVTSTGGEKMSMVACGWRHTISVSYSGALYTYGWSKYGQLGHGDLEDHLIPHKLEALSNSFISQISGGWRHTMALTSDGKLYGWGWNKFGQVGVGNNLDQCSPVQVRFPDDQKVVQVSCGWRHTLAVTERNNVFAWGRGTNGQLGIGESVDRNFPKIIEALSVDGASGQHIESSNIDPSSGKSWVSPAERYAVVPDETGLTDGSSKGNGGDISVPQTDVKRVRI

Holding throughout (conditions): with itself, read off a plot
In assay [1] the parent is B1. Nature of the assay: FRET by acceptor photobleaching in tobacco leaves, pFRET-NcCg-DEST vector.
In assay [2] the parent is B1. Nature of the assay: FRET (sensitized emission ratio mCherry(488)/GFP(488)) in tobacco leaves, pFRET-NcCg-DEST vector.
The variants in assay [3] derive from B1. Nature of the assay: intermolecular FRET (sensitized emission ratio mCherry(488)/GFP(488)) in tobacco leaves, pFRET-2in1-DEST vector.
[4] abbreviates: +UV-B: 3 μmol m–2 s–1 broadband UV-B for 1 hour, parent: 11.
[5] abbreviates: +UV-B: 3 μmol m–2 s–1 broadband UV-B for 1 hour, parent: 0.5.
Setting [6] is: +UV-B: 3 μmol m–2 s–1 broadband UV-B for 1 hour, parent: 0.44.

Among the data in PMC6374739 are response values, retold here.

For the variant chain 1 D96N D107N, the response turned out to be 9.7% in the assay with itself [1] (setting [4]); 9.6% with itself [1] (-UV-B, parent: 18); 0.43 with itself [2] (setting [5]); 0.43 with itself [2] (-UV-B, parent: 0.56); 0.33 with itself [3] (setting [6]); 0.33 with itself [3] (-UV-B, parent: 0.5).

With chain 1 W285F, the response with itself [1] (setting [4]) was determined as 17%; with itself [1] (-UV-B, parent: 18) it was 17%; with itself [2] (setting [5]), 0.58; in the assay with itself [2] (-UV-B, parent: 0.56) it was 0.59; with itself [3] (setting [6]), 0.51; with itself [3] (-UV-B, parent: 0.5), 0.5.
